# Results from patent publication US20240317847A1 (Bayer, published 2024).
# Positions count from the first letter of the chain named.
# T1: murine IL-11 (mouse, UniProt P47873 22-199)
# T1 sequence: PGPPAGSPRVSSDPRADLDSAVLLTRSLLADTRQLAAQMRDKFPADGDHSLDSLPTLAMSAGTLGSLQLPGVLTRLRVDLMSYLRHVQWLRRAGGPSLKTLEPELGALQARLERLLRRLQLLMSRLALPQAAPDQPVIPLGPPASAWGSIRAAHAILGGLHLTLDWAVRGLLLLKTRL
# T2: human IL-11 (human, UniProt P20809 22-199)
# T2 sequence: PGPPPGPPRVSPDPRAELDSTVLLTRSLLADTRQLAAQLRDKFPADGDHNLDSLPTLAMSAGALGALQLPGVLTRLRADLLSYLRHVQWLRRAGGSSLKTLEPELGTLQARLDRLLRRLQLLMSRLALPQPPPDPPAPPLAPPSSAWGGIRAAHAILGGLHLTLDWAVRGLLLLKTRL
# T3: rat IL-11 (rat, UniProt Q99MF5 22-199)
# T3 construct: Invigate, e.g. lot #C301019-19; also called rIL11
# T3 sequence: T1 sequence with S50N, L84F, G94A, V137A, I138V
# T4: murine IL-11 (mouse, UniProt P47873 22-199)
# T4 construct: Invigate, e.g. lot #C210819-09; biotinylated where coated in the ELISA; also called mIL-11; mIL11
# T4 sequence: T1 sequence
# T5: cynomolgus IL-11 (cynomolgus, UniProt P20808 22-199)
# T5 construct: Invigate, lot #C290621-19; also called cIL11; cynoL-11
# T5 sequence: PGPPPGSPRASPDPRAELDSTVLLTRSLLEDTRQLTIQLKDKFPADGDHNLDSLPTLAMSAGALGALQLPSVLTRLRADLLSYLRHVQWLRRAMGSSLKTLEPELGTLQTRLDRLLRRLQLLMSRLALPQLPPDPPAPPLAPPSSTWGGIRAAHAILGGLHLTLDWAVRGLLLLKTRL
# T6: human IL-11 (human, UniProt P20809 22-199)
# T6 construct: Invigate, e.g. lot #C121021-19; biotinylated where coated in the ELISA; also called hIL-11; hIL11
# T6 sequence: T2 sequence
# B1: TPP-31293 (antibody, IgG4, V domains shown)
# VH: EVQLLESGGGLVQPGGSLRLSCAASGFTFSHYDMNWVRQAPGKGLEWVGVISYDGSNKFYADFVKGRFTISRDNSKNTLYLQMNSLRAEDTAVYYCARTPGSHFDYWGQGTLVTVSS
# VL: QSVLTQPPSASGTPGQRVTISCSGSSSNIGNNAVNWYQQLPGTAPKLLIYYDDLLPSGVPDRFSGSKSGTSASLAISGLRSEDEADYYCSAWDDSLNGVVFGGGTKLTVL
# notes: hIgG4 SPLE, lambda
# B2: TPP-31292 (antibody, IgG4, V domains shown)
# VH: B1 VH with N35H, V37L
# VL: B1 VL
# notes: hIgG4 SPLE, lambda
# B3: TPP-31284 (antibody, IgG4, V domains shown)
# VH: B1 VH with V37L
# VL: B1 VL with L55R
# notes: hIgG4 SPLE, lambda
# B4: TPP-31278 (antibody, IgG4, V domains shown)
# VH: B1 VH with V37L
# VL: B1 VL with A33Y
# notes: hIgG4 SPLE, lambda
# B5: TPP-31294 (antibody, IgG4, V domains shown)
# VH: B1 VH with V37L, G49A
# VL: B1 VL
# notes: hIgG4 SPLE, lambda
# B6: TPP-31277 (antibody, IgG4, V domains shown)
# VH: B1 VH with V37L
# VL: B1 VL with N31S
# notes: hIgG4 SPLE, lambda
# B7: TPP-31285 (antibody, IgG4, V domains shown)
# VH: B1 VH with V37L
# VL: B1 VL with S90A
# notes: hIgG4 SPLE, lambda
# B8: TPP-31296 (antibody, IgG4, V domains shown)
# VH: B1 VH with V37L, F63S
# VL: B1 VL
# notes: hIgG4 SPLE, lambda
# B9: TPP-23580 (antibody, mouse IgG1, kappa)
# heavy: EVQLVQSGAEVKKPGASVKISCKASGYTFTDYNMDWVKQAPGQRLEWIGDINPHNGGPIYNQKFTGRATLTVDKSASTAYMELSSLRSEDTAVYYCARGELGHWYFDVWGQGTTVTVSSAKTTPPSVYPLAPGSAAQTNSMVTLGCLVKGYFPEPVTVTWNSGSLSSGVHTFPAVLQSDLYTLSSSVTVPSSTWPSETVTCNVAHPASSTKVDKKIVPRDCGCKPCICTVPEVSSVFIFPPKPKDVLTITLTPKVTCVVVDISKDDPEVQFSWFVDDVEVHTAQTQPREEQFNSTFRSVSELPIMHQDWLNGKEFKCRVNSAAFPAPIEKTISKTKGRPKAPQVYTIPPPKEQMAKDKVSLTCMITDFFPEDITVEWQWNGQPAENYKNTQPIMDTDGSYFVYSKLNVQKSNWEAGNTFTCSVLHEGLHNHHTEKSLSHSPGK
# light: DIVLTQSPASLALSPGERATLSCRASKSVSTSGYSYIHWYQQKPGQPPRLLIYLASNLDSGVPARFSGSGSGTDFTLNIHPLEEEDFATYYCQHSRDLPPTFGQGTKLEIKRADAAPTVSIFPPSSEQLTSGGASVVCFLNNFYPKDINVKWKIDGSERQNGVLNSWTDQDSKDSTYSMSSTLTLTKDEYERHNSYTCEATHKTSTSPIVKSFNRNEC
# notes: text calls it the mouse IgG1 version of the WO2019238882 antibody; also called BSN 3C6 2.2-2.1-mIgG1Kappa
# Biological target: T1, murine IL-11
# Experiment: cell-based or functional assay
Binder,"IC50, RGA 1 [nM]","IC50, RGA 2 [nM]"
B1,31,13
B2,52,39
B3,65,17
B4,0.13,0.08
B5,41,28
B6,43,27
B7,111,23
B8,20,22

# Biological target: T2, human IL-11
# Experiment: cell-based or functional assay
Binder,"IC50, RGA 1 [nM]","IC50, RGA 2 [nM]"
B1,58,13
B2,234,107
B3,101,131
B4,22,2.36
B5,96,38
B6,211,47
B7,50,16
B8,46,158

# Biological target: T3, rat IL-11
# Experiment: SPR 37 C, antibody captured, IL-11 as analyte
# Protocol: (§1) To assess the binding kinetics and affinity of anti-IL-11 antibodies as well as their species cross-reactivity profile, binding assays were conducted using surface plasmon resonance (SPR). Binding assays were performed on a Biacore T200 instrument or on a Biacore 8K+ instrument (Cytiva) at 37° C. using assay buffer HBS EP+, 300 mM NaCl, 1 mg/ml BSA, 0.05% NaN3. Antibodies were captured either via anti-human Fc IgGs (“Human antibody capture kit”, Order No. BR100839, Cytiva) or via anti-mouse Fc IgGs (“Mouse antibody capture kit, Order No. BR100383, Cytiva) covalently amine coupled to a Series S CM5 sensor chip (Cytiva) depending on the isotype. The amine coupling was carried out according to the manufacturer's instructions using 1-ethyl-3-(3-dimethylaminopropyl) carbodiimide hydrochloride (EDC), N-hydroxysuccinimide (NHS) and ethanolamine HCl, pH 8.5 (“Amine Coupling Kit” BR-1000-50, Cytiva.). Human, mouse, cynomolgus or rat IL-11 was used as analyte at several dilutions within the concentration range from 0.05-200 nM. For binding assays with only one concentration 200 nM IL-11 was used. The sensor surface was regenerated with glycine pH 1.7 after each antigen injection. Obtained sensorgrams were double referenced (subtraction of reference flow cell signal and buffer injection) and were fitted to a 1:1 Langmuir binding model to derive kinetic data using the Biacore T200 Evaluation software or the Biacore Insight software. If no value is reported, there was either no binding or very low binding and multiphasic binding behavior. Values below 1E-12 were considered to be below the dynamic range of the instrument and set to <1E-12.
row,Binder,Kd [nM]
1,B9,4.1

# Biological target: T4, murine IL-11
# Experiment: SPR 37 C, antibody captured, IL-11 as analyte
# Protocol: as §1
row,Binder,Kd [nM]
1,B9,2.4

# Biological target: T5, cynomolgus IL-11
# Experiment: SPR 37 C, antibody captured, IL-11 as analyte
# Protocol: as §1
row,Binder,binding result
1,B9,no binding (tested: IL-11 up to 200 nM)

# Biological target: T6, human IL-11
# Experiment: SPR 37 C, antibody captured, IL-11 as analyte
# Protocol: as §1
row,Binder,Kd [nM]
1,B9,2.1

# Biological target: T1, murine IL-11
# Experiment: SPR; limit told of 12 single-site germlining mutants; antigen not given, SPR run on human and mouse IL-11
row,Binder,Kd [nM]
1,B1,< 19
2,B2,< 19
3,B3,< 19
4,B4,< 19
5,B5,< 19
6,B6,< 19
7,B7,< 19
8,B8,< 19

# Biological target: T2, human IL-11
# Experiment: as above
row,Binder,Kd [nM]
1,B1,< 19
2,B2,< 19
3,B3,< 19
4,B4,< 19
5,B5,< 19
6,B6,< 19
7,B7,< 19
8,B8,< 19

# Biological target: T4, murine IL-11
# Experiment: Di-complex ELISA, competitor canine IL11RA-Fc on coated IL-11;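 for Efficacy (%): signal drop relative to signal at lowest antibody concentration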
# Protocol: (§2) The assay is performed using streptavidin coated microtiter plates (Greiner bio-one, #781997). In a first step, 10 nM biotinylated mouse IL-11 (Invigate, Germany, e.g., lot #C210819-09) or human IL-11 (Invigate, Germany, e.g., lot #C121021-19) is coated in 25 μl PBS on the plate at 4° C. overnight. Next day, the plate is washed three times with 50 μl PBST and then blocked with 50 μl SmartBlock (Candor, #113125) for one hour at room temperature (RT). After additional three washes with PBST, 25 μl of a mixture of the murine anti IL-11 antibody and recombinant canine IL11RA-Fc fusion protein (Sino Biological, #70078-D02H) in PBS-T, 10% Smartblock are added simultaneously to the plate and incubated for one hour at RT. […] After three additional washes with PBS-T, 25 μl anti-human-POD (Sigma, #A0170) in PBS-T, 10% Smartblock is added and incubated for 1 hour at RT. After a final three washes with PBS-T, 25 μl AmplexRed (Fisher Scientific, A12222), 1/1000 in PBS, 0,003% H₂O₂, is added as substrate and incubated for 15 min at RT in the dark. Then, the fluorescence is measured with a plate reader at 535/595 nm. Signals from dose responses were used to calculate IC50 values (GraphPad Prism). Efficacy was calculated as [(signal measured at lowest antibody concentration−signal measured at the highest antibody concentration)×100] divided by (signal measured at lowest antibody concentration−signal measured in the absence of IL11Ra).
# (§3) IgG converted antibodies were subjected to the experimental assay procedure described in Example 18.
Binder,Efficacy (%),IC50 [nM]
B9,93,6.8

# Biological target: T6, human IL-11
# Experiment: as above
# Protocol: as §2, §3
Binder,Efficacy (%),IC50 [nM]
B9,93.3,10

# Biological target: T3, rat IL-11
# Experiment: cell-based or functional assay
Binder,RGA Efficacy (%),RGA IC50 [nM]
B9,62.2,14

# Biological target: T4, murine IL-11
# Experiment: cell-based or functional assay
Binder,RGA Efficacy (%),RGA IC50 [nM]
B9,88.9,7.9

# Biological target: T5, cynomolgus IL-11
# Experiment: cell-based or functional assay
row,Binder,RGA Efficacy (%)
1,B9,21.9

# Biological target: T6, human IL-11
# Experiment: cell-based or functional assay
row,Binder,RGA Efficacy (%)
1,B9,64

# Biological target: T1, murine IL-11
# Experiment: cell-based or functional assay
# Remark: another data set of the same source
row,Binder,RGA potency (mean) [nM]
1,B1,< 170
2,B2,< 170
3,B3,< 170
4,B4,< 170
5,B5,< 170
6,B6,< 170
7,B7,< 170
8,B8,< 170

# Biological target: T2, human IL-11
# Experiment: cell-based or functional assay
# Remark: another data set of the same source
row,Binder,RGA potency (mean) [nM]
1,B1,< 170
2,B2,< 170
3,B3,< 170
4,B4,< 170
5,B5,< 170
6,B6,< 170
7,B7,< 170
8,B8,< 170
